{"source": "paper PMC3386190", "about": "“The Rhoptry Proteins ROP18 and ROP5 Mediate Toxoplasma gondii Evasion of the Murine, But Not the Human, Interferon-Gamma Response” (PLoS Pathogens, 2012)", "proteins": {"B1": {"name": "Recombinant Irga6 (residues 1-413) (natural protein)", "chain": "MGQLFSSPKSDENNDLPSSFTGYFKKFNTGRKIISQEILNLIELRMRKGNIQLTNSAISDALKEIDSSVLNVAVTGETGSGKSSFINTLRGIGNEEEGAAKTGVVEVTMERHPYKHPNIPNVVFWDLPGIGSTNFPPNTYLEKMKFYEYDFFIIISATRFKKNDIDIAKAISMMKKEFYFVRTKVDSDITNEADGKPQTFDKEKVLQDIRLNCVNTFRENGIAEPPIFLLSNKNVCHYDFPVLMDKLISDLPIYKRHNFMVSLPNITDSVIEKKRQFLKQRIWLEGFAADLVNIIPSLTFLLDSDLETLKKSMKFYRTVFGVDETSLQRLARDWEIEVDQVEAMIKSPAVFKPTDEETIQERLSRYIQEFCLANGYLLPKNSFLKEIFYLKYYFLDMVTEDAKTLLKEICLRN", "notes": "immunity-related GTPase Irga6, mouse, residues 1-413; a TEV cleavage site stands between the tags and the protein; source: recombinant (Lim et al., submitted)"}}, "target": "the molecule itself", "experiment": "dynamic light scattering; 20 µM Irga6 with 10 mM GTP at 37°C in 50 mM Tris/5 mM MgCl2/2 mM DTT, in the presence or absence of 40 µM (His6)-MBP-tagged ROP5-CIII or (His6)-MBP; mean hydrodynamic radius over 35 minutes", "data": [{"protein": "B1", "values": [{"measurement": "binding result", "result": "binds"}]}]}
